Data published in the DeepSol protein solubility set.

Assay: soluble on expression in E. coli; label from the status in PepcDB or PDB records

| Sequence | soluble on expression in E. coli |
| --- | --- |
| MSLKDILVIGATGKQGNAVVKQLLEDGWYVSALTRNKNNRKLSDIGHPHLSIVEGDLSDNVSLQSAMKGKYGLYSIQPIVKDDVSEELRQGMKIIEIAEQENIQHIVYSTAGGVNRNRTGPHFEVLAKIENRLMESNINATVIKPSFFMDNFLRIAKVEDERITLPEFINPNIKFTMISSIDIAKIASYIFAHPQSFTHQSIEIGSDEVTLSEAATIFSEVTGKSTVIEGEFVSGVAEKQWLEEKGYEVDFELMAEINPTRLSLSDWLKVQNYNEGHHHHHH | soluble |
| MSLTFDFFEGPAGSGKTFSMVAHARQLIESDALGEGQRMLALTFMNGARRRLTSNLNAEASFRRKFDCLTFDSFAQSLAKRRSAKLTDEMRQQAEELGQFHGPCFLACELLNDVEVRRWVARTYPLVLVDEAQDLDVHRQGIVLGLKECCTTVVAADSFQCLSDGQETADFIDRLLRAGTTHTLTQSHRTNKAGLLAAALAVRNGEDIRAVLNEEAIGKTNRVHWIGEGIELVEVPATARNSGLLAWNLAFQLRLGSDDVALLTPDSANTIIRNAIGTVASKQRPWPHNAFSVSWEGGDSSVADELAEAIGFPDTAPYDEVCALLEEHSAQPMVKTVIRRIRRLQRVTGQSEFEKAQLVSFISDAVRTNTRLGFKKSAKIKAMSIHGAKNREFDRVIVLWPQSATGSDEHKRRLLYNAMTRTKNHCTVIVLGTGRLNSAPFAEGHHHHHH | soluble |
| MGTFTLHQGQTNLIKSFFRNYYLNAELELPKDMELREFALQPFGSDTYVRHLSFSSSEELRDYLVNRNLPLHLFYSSARYQLPSARNMEEKAWMGSDLLFDIDADHLCKLRSIRFCPVCGNAVVSEKCERDNVETLEYVEMTSECIKRGLEQTRNLVEILEDDFGLKPKVYFSGNRGFHVQVDCYGNCALLDSDERKEIAEYVMGIGVPGYPGGSENAPGWVGRKNRGINGVTIDEQVTIDVKRLIRIPNSLHGKSGLIVKRVPNLDDFEFNETLSPFTGYTIFLPYITIETEVLGSIIKLNRGIPIKIKSSIGIYLHLRNLGEVKAYVR | soluble |
| RRNDDAGMIIPSFGISYDDQYDLIDEIERISKLTDVDEIKKSMDAIDGKKMDFDLGGVVAVGIPNKFLSATVYGKLYTESFVQPNVDTSGADPLTDSYVQGVSIGVAEAGVSLAKYTNFMNQHLSFGITPKLQRIYTYSYATSFKNFDTKDLREHETAETMFNLDAGALWFFGPYRLGISAKNLIGRDVKTKSFQYNTDTIQSYEYSMRPVYTVGAGIVADYFTMSVDYDLNEEKRFSSFDDNTQMIRAGFEIDILRQMALRGGYMKNLARSNDEGTITAGIGLSPLNLIELDISARYTNENAMGASINFLATY | not soluble |
| MFFIMNYHIDWLTIEQDFGFEIPESILAAIFDFGMVGIHLDTGEMQEGIKTGKYRHKGSFCDEVSIKVSGSVIKMEGNPSRWGKVENVLGFTDVDSCVACFNNILFSLNLPLFTRCTEVFYLQGKEGEKVKKFSNGAIIKRLDITTNKSVGKGNERTFLKALSQMRYRNSVGRLHTNHCTVDWLSEKGNANLIYPSCYIKHEEMKLHSYDKIKNKFGQQAKEFQYYQKVFDYCLENGVVRFEQKLKSRYLQRENLCYWGLSDFSKLNEIQDGFINMYKKLSVSEVKLETIAQQLVSQGVVDTLRKANTTAYYAMRWSSGEDLSLLPIATFKRHRAILRKIGIDIANPCDIEKFQAVRVISCEQIFVKPFKAPDFYQYPSNMPQLRLVALEHHHHHH | not soluble |
| MKKLAVKALLFIMGTMLYSAPTYEYRRELREGARGKWTNLRQHLNSGTRLEKELTKVDKQIDKKVNEIQEIEDLLFRIEQYKAANNIR | not soluble |
| MAEDIEEILAEIDGSQIEEYQKFFDAFDRGKQGYIMATQIGQIMHGMEQDFDEKTLRKLIRKFDADGSGKLEFDEFCALVYTVANTVDKETLEKELREAFRLFDKEGNGYISRPTLKALLKEIADDLTDQQLEEAVDEIDEDGSGKIEFEEFWELMAGESD | not soluble |
| MGSDKIHHHHHHMDLMSFKEREISKKDCVELFEDTENFFDILKLADSIRKDIVGDTVTFVKNTNIETTNVCTMGCKFCAFSVSKNSPEAFKLDADEIAKKAVIAKKSGLTEVTIHGGIHPDVDTHFQVETINKVNSATSKLGGIYTHAYSPQEILNGAENAGLSIKEALKMLNEAGLRTIPGTAAEILDDEVRSDICPLKMSTKKWIDIMKTAHKTGIKTTSTIIYGHVEEYKHIVDHLSILKELQEETGGITEFIPMSFLHENTPLYKSGRVTDGASGLYELKLYAIARILFKESIKNIQAPRVKIGTKLSQLILKSGANDLGGTLVEDKVSKAAGSIYEDASVDLMKNAITSIGRIPKERTTLYEIIE | not soluble |
| MDIGINSDPPPRDWQLEKVVELSRAGIRPPTAGNREAIEAATGRPWTEWTTHDGELTGHGYAAVVNKGREEGQHYRQLGLLQAGCPTAESIYVRASPLQRTRATAQALVDGAFPGCGVAIHYANGDADPLFQTDKFAATQTDPARQLAAVKEKAGDLAQRRQALAPTIQLLKQAVCQADKPCPIFDTPWRVEQSKSGKTTISGLSVMANMVETLRLGWSENLPLSQLAWGKIAQASQITALLPLLTENYDLSNDVLYTAQKRGSVLLNAMLDGVKPEASPNVRWLLLVAHDTNIAMVRTLMNFSWQLPGYSRGNIPPGSSLVLERWRDAKSGERYLRVYFQAQGLDDLRRLQTPDAQHPMLRQEWRQPGCRQTDVGTLCPFQAAITALGQRIDRPSAPAVAMVLPKLAAALEHHHHHH | soluble |
| MSTPVDLTEGLDGAKLAVTVLMIRDSPTGLEVYVQERVSSMPTFPNATVFPGGGVDPRDFELDGVESEHETFGGPSLMHWARSLGTNRNRARALLFAAARELFEETGTLLATHSDGTPIPDATQYHPQRLALESHRLSLSQVLARHDLTLRSEWLRPSTRWVSPETDEKRFDMFAFVAVQPPGQEPDGNTREAASTGWFSPSLILDGWRAGLIRLVIPTWAQLLILSRFDCVRDVLEFLRRADMTPIIGDPVDDPRFEEFYSFTPPERF | not soluble |
| MSLLPGPLLIPSDSSTELTQTVLEGESISCFQVGGEKRLCLPQVLNSVLREFTLQQINTVCDELYIYCSRCTSDQLHILKVLGILPFNAPSCGLITLTDAQRLCNALLRPRTFPQNGSVLPAKSSLAQLKETGSAFEVEHECLGKCQGLFAPQFYVQPDAPCIQCLECCGMFAPQTFVMHSHRSPDKRTCHWGFESAKWHCYLHVNQKYLGTPEEKKLKIILEEMKEKFSMRSGKRNQSKTDAPSGMELQSWYPVIKQEGDHVSQTHSFLHPSYYLYMCDKVVAPNVSLTSAVSQSKELTKTEASKSISRQSEKAHSSGKLQKTVSYPDVSLEEQEKMDLKTSRELCSRLDASISNNSTSKRKSESATCNLVRDINKVGIGLVAAASSPLLVKDVICEDDKGKIMEEVMRTYLKQQEKLNLILQKKQQLQMEVKMLSSSKSMKELTEEQQNLQKELESLQNEHAQRMEEFYVEQKDLEKKLEQIMKQKCTCDSNLEKDKEAEYAGQLAELRQRLDHAEADRQELQDELRQEREARQKLEMMIKELKLQILKSSKTAKEEGHHHHHH | not soluble |
| MKLLFTSAFTQMFGYSNHMDQASNCQSTRNKIIKMMKKEEFPSGFQVPLHYPKYSKSDYEVMDDLRLDLLLKQYGFSFEGSLEDKRVFAIESFLWPDQL | soluble |
| MREEKGMDQKVYDAYLSILKAELVPALGCTEPITIAYASAIARECLGAFPDVIQIKASGNIIKNVKSVVVPGTNGMKGIEAAVAAGLVGGKSEKKLEVISEVTEEEKEQIRDLVEKEIIEVGIAGSDLLLDVQVQLKKGDDSVFVRIANAHTNVVLVEKNGVRLFEKAMDCGGDDAGLSQEKKLLSVEGILEFADQVKLEDIEDVISRQIAYNTAIADEGLAHNYGANIGKVLLQAYGDQDVRVRAKARAAAGSDARMSGCELPVIINSGSGNQGITASVPVIEYAKELKCGEEKMYRALVLSNLIAIHQKTGIGPLSAYCGAVSAGCASGAAIAYLNGGDLRTISHTIVNCLAIASGIVCDGAKASCAAKIGMSVEAGLLGYLMIEQDQQFRAGDGIVKKGVEETIRSVGRLGKDGMRETDREILEIMIGK | not soluble |
| MGSDKIHHHHHHMLICATCAVERDEPAPELCPICTDERQYVPEEGQKWLTLDGLAQQGQQTVLRENEPGLIGIRTEPKVGIGQTAQLVVTHEGSLLWDPVGYVDDSAVNAALERGPVLAIAASHPHMFGVQVEWSHRLGGVPVLVADADRRWLGRNDPVIEYWSGSHTIAEGLTLHQTGGHFPGSAVVHWAAGAAGRGVLLTGDSVYPNPDRRSISFMRSYPNHLPLSGAVALRIAAQLGELEFDRIYGNFNNVIASGAKAALHDSAQRHAAWARGDFDHLT | not soluble |
